Test results published in the supplement of paper PMC10724198.
± gives the standard deviation of the averaged measurements.

Tests used:
Saccharomyces cerevisiae [1] = assay: protein stability index of tFT-peptide fusion (C-terminal peptide) (PSI (0-1 scale)); higher = more stable (slower turnover)
Protocol: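 MPS profiling in S. cerevisiae of the tFT-X12 degron library: putative degron peptides plus stable controls, 12 aa, fused to the C-terminus of a sfGFP-mCherry timer. Cells are FACS-sorted into 8 mCherry/sfGFP bins and deep-sequenced. PSI runs from 0 (unstable) to 1 (stable). Backgrounds are wild type, das1Δ and doa10Δ at 30 °C, and wild type, das1Δ, cdc34-1 and cdc53-1 at 37 °C; 2-3 technical replicates each.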

Saccharomyces cerevisiae [2] = assay: as above; conditions: genetic background: wild type; temperature: 30 C
[3] = genetic background: cdc34-1, temperature: 37 C
[4] = genetic background: cdc53-1, temperature: 37 C
[5] = genetic background: das1 deletion, temperature: 30 C
[6] = genetic background: das1 deletion, temperature: 37 C
[7] = genetic background: doa10 deletion, temperature: 30 C
[8] = genetic background: wild type, temperature: 30 C
[9] = genetic background: wild type, temperature: 37 C
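Further: PSI is a weighted mean of sequencing reads over stability bins, variants kept only with over 10 reads, mCherry proximal and sfGFP distal, peptide attached via GGGS linker.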

| Sequence | protein stability index (Saccharomyces cerevisiae [1]; [3]) | protein stability index (Saccharomyces cerevisiae [1]; [4]) | protein stability index (Saccharomyces cerevisiae [1]; [5]) | protein stability index (Saccharomyces cerevisiae [1]; [6]) | protein stability index (Saccharomyces cerevisiae [1]; [7]) | protein stability index (Saccharomyces cerevisiae [1]; [8]) | protein stability index (Saccharomyces cerevisiae [1]; [9]) | protein stability index (Saccharomyces cerevisiae [2]) |
| --- | --- | --- | --- | --- | --- | --- | --- | --- |
| IPRSCRIRLAVL | 0.658 ± 0.03 | 0.715 ± 0.0073 | 0.562 ± 0.032 | 0.7175 ± 0.0055 | 0.254 ± 0.0096 | 0.271 ± 0.027 | 0.359 ± 0.021 | 0.359 ± 0.014 |
| IQICLNRLRLFH | 0.654 ± 0.024 | 0.7 ± 0.01 | 0.63 ± 0.016 | 0.7002 ± 0.0018 | 0.251 ± 0.016 | 0.305 ± 0.02 | 0.573 ± 0.043 | 0.4361 ± 0.0038 |
| IRACGCSFLWVC | 0.465 ± 0.048 | 0.63 ± 0.01 | 0.5 ± 0.026 | 0.678 ± 0.0079 | 0.1113 ± 0.00066 | 0.106 ± 0.0056 | 0.118 ± 0.015 | 0.192 ± 0.035 |
| IRLCAASFMVVF | 0.501 ± 0.025 | 0.55 ± 0.03 | 0.414 ± 0.023 | 0.5352 ± 0.0027 | 0.3904 ± 0.0034 | 0.405 ± 0.023 | 0.524 ± 0.014 | 0.474 ± 0.017 |
| IRSRGLLIRWLS | 0.52 ± 0.025 | 0.679 ± 0.023 | 0.616 ± 0.026 | 0.721 ± 0.011 | 0.0894 ± 0.0094 | 0.0994 ± 0.033 | 0.148 ± 0.015 | 0.182 ± 0.015 |
| IVCAVTSIFLFF | 0.306 ± 0.015 | 0.45 ± 0.0079 | 0.288 ± 0.014 | 0.452 ± 0.016 | 0.243 ± 0.01 | 0.249 ± 0.035 | 0.422 ± 0.0045 | 0.315 ± 0.021 |
| IVRSLFGYLCVV | 0.571 ± 0.0099 | 0.609 ± 0.0076 | 0.524 ± 0.015 | 0.633 ± 0.0095 | 0.427 ± 0.0099 | 0.437 ± 0.022 | 0.569 ± 0.0066 | 0.467 ± 0.037 |
| KCVVMFFLRSVS | 0.636 ± 0.024 | 0.6956 ± 0.0065 | 0.529 ± 0.037 | 0.676 ± 0.022 | 0.396 ± 0.012 | 0.412 ± 0.011 | 0.598 ± 0.011 | 0.5 ± 0.026 |
| KFFRSWVLTSPA | 0.585 ± 0.06 | 0.607 ± 0.015 | 0.427 ± 0.032 | 0.6157 ± 0.0025 | 0.41 ± 0.021 | 0.444 ± 0.018 | 0.609 ± 0.021 | 0.494 ± 0.057 |
| KFRGMTLRNKVC | 0.545 ± 0.041 | 0.73 ± 0.047 | 0.657 ± 0.019 | 0.717 ± 0.017 | 0.093 ± 0.0025 | 0.1 ± 0.04 | 0.224 ± 0.069 | 0.267 ± 0.013 |
| KHTGTGNAPNCD | 0.686 ± 0.061 | 0.729 ± 0.024 | 0.649 ± 0.013 | 0.719 ± 0.011 | 0.647 ± 0.025 | 0.635 ± 0.011 | 0.712 ± 0.012 | 0.754 ± 0.056 |
| KIKKLKNRRKLV | 0.673 ± 0.0046 | 0.7717 ± 0.0033 | 0.625 ± 0.0071 | 0.7297 ± 0.003 | 0.0918 ± 0.019 | 0.0978 ± 0.0038 | 0.196 ± 0.032 | 0.166 ± 0.088 |
| KKKKQKKNNNKR | 0.699 ± 0.094 | 0.687 ± 0.15 | 0.676 ± 0.083 | 0.755 ± 0.034 | 0.668 ± 0.011 | 0.6 ± 0.027 | 0.698 ± 0.079 | 0.536 ± 0.074 |
| KLKDLTRIKIFR | 0.681 ± 0.0063 | 0.714 ± 0.033 | 0.666 ± 0.031 | 0.6989 ± 0.0069 | 0.6428 ± 0.002 | 0.6737 ± 0.0056 | 0.701 ± 0.011 | 0.722 ± 0.019 |
| KRARVIWKLVVV | 0.59 ± 0.033 | 0.528 ± 0.008 | 0.408 ± 0.024 | 0.583 ± 0.006 | 0.23 ± 0.01 | 0.287 ± 0.015 | 0.4876 ± 0.0039 | 0.445 ± 0.0046 |
| KRMVEKNKKKIN | 0.57 ± 0.063 | 0.747 ± 0.087 | 0.613 ± 0.029 | 0.729 ± 0.024 | 0.153 ± 0.024 | 0.201 ± 0.037 | 0.368 ± 0.012 | 0.31 ± 0.036 |
| KSSIGVWTLLIR | 0.282 ± 0.012 | 0.3 ± 0.026 | 0.337 ± 0.026 | 0.454 ± 0.022 | 0.564 ± 0.02 | 0.334 ± 0.035 | 0.423 ± 0.022 | 0.494 ± 0.016 |
| KSTLVRILVFHV | 0.559 ± 0.047 | 0.6474 ± 0.0042 | 0.458 ± 0.028 | 0.646 ± 0.044 | 0.2825 ± 0.0003 | 0.303 ± 0.0068 | 0.522 ± 0.0089 | 0.384 ± 0.071 |
| KYKANLGNLKVH | 0.596 ± 0.067 | 0.7161 ± 0.0013 | 0.632 ± 0.019 | 0.725 ± 0.029 | 0.0824 ± 0.011 | 0.0914 ± 0.05 | 0.101 ± 0.0031 | 0.135 ± 0.056 |
| LAPPFPVVLTPA | 0.294 ± 0.043 | 0.32381 ± 2.9e-05 | 0.263 ± 0.036 | 0.4137 ± 0.00012 | 0.219 ± 0.0087 | 0.267 ± 0.035 | 0.3816 ± 0.0013 | 0.334 ± 0.015 |
| LCGGEWVVWVKG | 0.645 ± 0.023 | 0.7321 ± 0.0055 | 0.557 ± 0.02 | 0.721 ± 0.012 | 0.211 ± 0.0085 | 0.234 ± 0.026 | 0.477 ± 0.029 | 0.342 ± 0.0052 |
| LCIFFWFSSFFL | 0.471 ± 0.028 | 0.561 ± 0.018 | 0.4 ± 0.021 | 0.5337 ± 0.0052 | 0.401 ± 0.0067 | 0.389 ± 0.019 | 0.505 ± 0.012 | 0.493 ± 0.015 |
| LCLICLFLLKVL | 0.477 ± 0.049 | 0.548 ± 0.048 | 0.395 ± 0.03 | 0.586 ± 0.0076 | 0.18 ± 0.018 | 0.201 ± 0.032 | 0.299 ± 0.017 | 0.337 ± 0.022 |
| LCRCPVGVFVLL | 0.516 ± 0.036 | 0.549 ± 0.031 | 0.39 ± 0.038 | 0.5395 ± 0.0021 | 0.356 ± 0.033 | 0.303 ± 0.035 | 0.469 ± 0.017 | 0.362 ± 0.012 |
| LCVVFCIRTYRV | 0.249 ± 0.027 | 0.437 ± 0.079 | 0.259 ± 0.038 | 0.476 ± 0.044 | 0.247 ± 0.031 | 0.251 ± 0.042 | 0.471 ± 0.027 | 0.335 ± 0.053 |
| LCYVLLWLLCRS | 0.45 ± 0.017 | 0.516 ± 0.049 | 0.349 ± 0.024 | 0.512 ± 0.0074 | 0.33 ± 0.0069 | 0.353 ± 0.026 | 0.501 ± 0.033 | 0.448 ± 0.027 |
| LDLPFESGIACF | 0.32 ± 0.035 | 0.297 ± 0.0081 | 0.259 ± 0.032 | 0.436 ± 0.027 | 0.209 ± 0.02 | 0.263 ± 0.029 | 0.397 ± 0.015 | 0.361 ± 0.0063 |
| LEGLLIRVYITF | 0.105 ± 0.034 | 0.234 ± 0.021 | 0.178 ± 0.019 | 0.3361 ± 0.00094 | 0.151 ± 0.017 | 0.173 ± 0.02 | 0.305 ± 0.0093 | 0.288 ± 0.014 |
| LFFFLFSLLIFF | 0.248 ± 0.019 | 0.25 ± 0.0039 | 0.349 ± 0.044 | 0.362 ± 0.0094 | 0.377 ± 0.014 | 0.259 ± 0.047 | 0.352 ± 0.011 | 0.301 ± 0.036 |
| LFFFRLFVFWVF | 0.195 ± 0.034 | 0.173 ± 0.037 | 0.238 ± 0.021 | 0.369 ± 0.01 | 0.173 ± 0.014 | 0.157 ± 0.023 | 0.251 ± 0.0066 | 0.203 ± 0.0063 |
